Assay results reported in patent US20250283886.

Columns and labels:
FAAAYPDDDF1 = biological target: T1, FAAAYPDDDF1
T1 chain: FAAAYPDDDF

FYPLPWPDDDY{LYSN3}NH2 = biological target: T2, FYPLPWPDDDY{LYSN3}NH2
T2 chain: FYPLPWPDDDYX

FAAAWPDDDF1 = biological target: T3, FAAAWPDDDF1
T3 chain: FAAAWPDDDF

WAAAFPDDDF1 = biological target: T4, WAAAFPDDDF1
T4 chain: WAAAFPDDDF

[1] = biological target: […]{LYS(N3)} peptide-linker conjugate, oligo linker (Table 6 entry 7)
[2] = biological target: T5, KKMKKM{LYS(N3)} peptide-linker conjugate, oligo linker (Table 6 entry 2)
T5 chain: KKMKKMX

[3] = biological target: T6, FFMFFM{LYS(N3)} peptide-linker conjugate, oligo linker (Table 6 entry 6)
T6 chain: FFMFFMX

[4] = biological target: T7, KKMKKM{LYS(N3)} peptide-linker conjugate, PEG4 linker (Table 6 entry 4)
T7 chain: KKMKKMX

[5] = biological target: KF peptide-linker conjugate, oligo linker (Table 6 entry 1)
[6] = biological target: […]{LYS(N3)} peptide-linker conjugate, oligo linker (Table 6 entry 5)
[7] = biological target: T8, KKMKKM{LYS(N3)} peptide-linker conjugate, oligo-PEG linker (Table 6 entry 3)
T8 chain: KKMKKMX

B1: Vibrio proteolyticus aminopeptidase (protein)
chain: MPPITQQATVTAWLPQVDASQITGTISSLESFTNRFYTTTSGAQASDWIASEWQALSASLPNASVKQVSHSGYNQKSVVMTITGSEAPDEWIVIGGHLDSTIGSHTNEQSVAPGADDDASGIAAVTEVIRVLSENNFQPKRSIAFMAYAAEEVGLRGSQDLANQYKSEGKNVVSALQLDMTNYKGSAQDVVFITDYTDSNFTQYLTQLMDEYLPSLTYGFDTCGYACSDHASWHNAGYPAAMPFESKFNDYNPRIHTTQDTLANSDPTGSHAKKFTQLGLAYAIEMGSATGDTPTPGNQ
100%: HPLC Assay Conv; 600 uM Peptide, 8 uM enzyme, RT/0.5 hr (FAAAYPDDDF1) | HPLC Assay Conv; 200 uM Peptide, 8 uM enzyme, MOPS pH 5.0, RT/0.5 hr (FYPLPWPDDDY{LYSN3}NH2) | HPLC Assay Conv; 200 uM Peptide, 8 uM enzyme, MOPS pH 5.0, RT/1 hr (FYPLPWPDDDY{LYSN3}NH2) | HPLC Assay Conv; 600 uM Peptide, 0.8 uM enzyme, pH 5.5, RT/0.5 hr (FYPLPWPDDDY{LYSN3}NH2) | HPLC Assay Conv; 600 uM Peptide, 0.8 uM enzyme, pH 6.5, RT/0.5 hr (FYPLPWPDDDY{LYSN3}NH2) | HPLC Assay Conv; 600 uM Peptide, 0.8 uM enzyme, pH 7.5, RT/0.5 hr (FYPLPWPDDDY{LYSN3}NH2) | HPLC Assay Conv; 600 uM Peptide, 0.8 uM enzyme, pH 8.5, RT/0.5 hr (FYPLPWPDDDY{LYSN3}NH2) | HPLC Assay Conv; 1200 uM Peptide, 0.008 uM enzyme, pH 7.5, RT/0.5 hr (FYPLPWPDDDY{LYSN3}NH2) | HPLC Assay Conv; 1200 uM Peptide, 0.008 uM enzyme, pH 8.5, RT/0.5 hr (FYPLPWPDDDY{LYSN3}NH2) | HPLC Assay Conv; 1200 uM Peptide, 0.08 uM enzyme, pH 6.5, RT/0.5 hr (FYPLPWPDDDY{LYSN3}NH2) | HPLC Assay Conv; 1200 uM Peptide, 0.08 uM enzyme, pH 7.5, RT/0.5 hr (FYPLPWPDDDY{LYSN3}NH2) | HPLC Assay Conv; 1200 uM Peptide, 0.08 uM enzyme, pH 8.5, RT/0.5 hr (FYPLPWPDDDY{LYSN3}NH2) | HPLC Assay Conv; 600 uM Peptide, 8 uM enzyme, pH 8, RT/0.5 hr (FAAAWPDDDF1) | HPLC Assay Conv; 300 uM Peptide, 8 uM enzyme, RB4, RT/0.5 hr (WAAAFPDDDF1) | HPLC Assay Conv; 300 uM Peptide, 8 uM enzyme, pH 8, 60 mM KOAc, RT/2 hr (WAAAFPDDDF1) | HPLC Assay Conv; 300 uM Peptide, 8 uM enzyme, pH 8, 0.2% Tween20, RT/0.5 hr (WAAAFPDDDF1) | HPLC Assay Conv; 300 uM Peptide, 8 uM enzyme, pH 8, RT/0.5 hr (WAAAFPDDDF1) | HPLC Assay Conv; 600 uM Peptide, 8 uM enzyme, pH 8, RT/0.5 hr (WAAAFPDDDF1)
2.70%: HPLC Assay Conv; 1200 uM Peptide, 800 pM enzyme, pH 7.5, RT/0.5 hr (FYPLPWPDDDY{LYSN3}NH2)
50%: HPLC Assay Conv; 600 uM Peptide, 0.8 uM enzyme, RT/0.5 hr (FAAAYPDDDF1) | HPLC Assay Conv; 1200 uM Peptide, 0.08 uM enzyme, pH 5.5, RT/0.5 hr (FYPLPWPDDDY{LYSN3}NH2)
6.80%: HPLC Assay Conv; 1200 uM Peptide, 800 pM enzyme, pH 8.5, RT/0.5 hr (FYPLPWPDDDY{LYSN3}NH2)
5%: HPLC Assay Conv; 600 uM Peptide, 0.08 uM enzyme, RT/0.5 hr (FAAAYPDDDF1) | HPLC Assay Conv; 300 uM Peptide, 8 uM enzyme, RB2 + Mg, RT/0.5 hr (WAAAFPDDDF1)
1.40%: HPLC Assay Conv; 1200 uM Peptide, 0.008 uM enzyme, pH 5.5, RT/0.5 hr (FYPLPWPDDDY{LYSN3}NH2)
30%: HPLC Assay Conv; 300 uM Peptide, 8 uM enzyme, 50/50 MOPS Mg buffer/RB1, RT/0.5 hr (WAAAFPDDDF1)
56%: HPLC Assay Conv; 1200 uM Peptide, 0.008 uM enzyme, pH 6.5, RT/0.5 hr (FYPLPWPDDDY{LYSN3}NH2)
70%: HPLC Assay Conv; 300 uM Peptide, 8 uM enzyme, pH 8, 60 mM KOAc, RT/0.5 hr (WAAAFPDDDF1)

B2: rat aminopeptidase N (protein)
chain: KPWNQYRLPKTLIPDSYQVTLRPYLTPNEQGLYIFKGSSTVRFTCNETTNVIIIHSKKLNYTNKGNHRVALRALGDTPAPNIDTTELVERTEYLVVHLQGSLVKGHQYEMDSEFQGELADDLAGFYRSEYMEGGNKKVVATTQMQAADARKSFPCFDEPAMKASFNITLIHPNNLTALSNMLPKDSRTLQEDPSWNVTEFHPTPKMSTYLLAYIVSEFKYVEAVSPNRVQIRIWARPSAIDEGHGDYALQVTGPILNFFAQHYNTAYPLEKSDQIALPDFNAGAMENWGLVTYRESALVFDPQSSSISNKERVVTVIAHELAHQWFGNLVTVDWWNDLWLNEGFASYVEFLGADYAEPTWNLKDLIVLNDVYRVMAVDALASSHPLSSPANEVNTPAQISELFDSITYSKGASVLRMLSSFLTEDLFKKGLSSYLHTFQYSNTIYLDLWEHLQQAVDSQTAIKLPASVSTIMDRWILQMGFPVITVNTSTGEIYQEHFLLDPTSKPTRPSDFNYLWIVPIPYLKNGKEDHYWLETEKNQSAEFQTSSNEWLLLNINVTGYYQVNYDENNWRKIQNQLQTDLSVIPVINRAQIIHDSFNLASAGKLSITLPLSNTLFLASETEYMPWEAALSSLNYFKLMFDRSEVYGPMKRYLKKQVTPLFAYFKIKTNNWLDRPPTLMEQYNEINAISTACSSGLEECRDLVVGLYSQWMNNSDNNPIHPNLRSTVYCNAIAFGGEEEWNFAWEQFRKATLVNEADKLRSALACSNEVWILNRYLSYTLNPDYIRKQDATSTIVSIANNVVGQTLVWDFVRSNWKKLFEDYGGGSFSFANLIQGVTRRFSSEFELQQLEQFKEDNSATGFGSGTRALEQALEKTKANIKWVKENKDVVLKWFTENS
Yes: Cleaved by Rat APN [1] | Cleaved by Rat APN [3] | Cleaved by Rat APN [4] | Cleaved by Rat APN [6]
No: Cleaved by Rat APN [2] | Cleaved by Rat APN [5] | Cleaved by Rat APN [7]
